Measurements from patent US20250066451A1 (SWEDISH ORPHAN BIOVITRUM AB PUBL, published 2025).

B1: Z12917 as Z-ABD fusion (periplasmic extract) (designed binder)
chain: AQHDEALEVDAKYAKEARQAYAEIYLLPNLTRRQYTAFIRKLLDDPSQSSELLSEAKKLNDSQAPKVDYVLAEAKVLANRELDKYGVSDYYKNLINNAKTVEGVKALIDEILAALPYVPG
B2: ABD001 (wild type albumin binding domain), periplasmic extract (other)
chain: LAEAKVLANRELDKYGVSDYYKNLINNAKTVEGVKALIDEILAALP
notes: Negative control; also called ABD negative control

Experiments:
[1] = target: T1, Human IL-1R-I-Fc (Creative BioMart cat. no. IL1RI-771H) (human, UniProt P14778 18-332, limits assumed); experiment: ELISA titration; Z-ABD periplasmic extract, hIL-1R-I-Fc 100-0.01 nM
T1 construct: Bought protein; also called hIL-1R-I-Fc; hIL-1RI-Fc; not shown: Fc part of the bought fusion
T1 sequence (looked up): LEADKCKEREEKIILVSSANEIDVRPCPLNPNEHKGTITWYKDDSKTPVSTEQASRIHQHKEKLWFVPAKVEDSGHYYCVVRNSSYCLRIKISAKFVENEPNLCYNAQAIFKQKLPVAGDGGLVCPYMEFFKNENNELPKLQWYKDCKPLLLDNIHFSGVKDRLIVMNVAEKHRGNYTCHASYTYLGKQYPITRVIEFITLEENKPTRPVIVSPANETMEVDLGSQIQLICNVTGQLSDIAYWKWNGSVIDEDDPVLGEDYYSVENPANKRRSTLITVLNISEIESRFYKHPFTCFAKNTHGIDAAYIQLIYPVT

[2] = target: T1, Human IL-1R-I-Fc (Creative BioMart cat. …); experiment: ELISA screening, periplasmic extract
Description: ELISA screening of Z variants: The clones obtained after four cycles of selection were produced individually in 96-well plates and were screened for hIL-1R-I-Fc binding activity in ELISA using 1 nM target protein. In parallel, an ELISA to exclude Fc binding was run.

Binder	EC50 [1] [nM]	binding result [2]
B1	0.33	
B2		no binding (tested: 1 nM hIL-1R-I-Fc)
